Measurements taken from patent US20130171217A1, “ENZYMATIC PERACID GENERATION FOR USE IN SKIN CARE PRODUCTS” (E I DU PONT DE NEMOURS AND COMPANY, priority 2010, published 2013).

How the values were obtained:
[1] = PAA generation with different perhydrolases and substrates, HPLC Karst assay; format: biochemical
Protocol: HC1121 is a CE-7 class carbohydrate esterase from Thermotoga maritima (C2775-HC263; SEQ ID NO: 288), and HC1169 is an aryl esterase from M. smegmatis (ArE-HC263; SEQ ID NO: 323). Both enzymes were tested for their perhydrolytic activity with substrates triacetin or propylene glycol diacetate (PGDA, Aldrich 528072) and hydrogen peroxide between pH 5 and pH 7.2. Enzyme free reactions for some reaction conditions were run to determine the non-enzymatic generation of peracetic acid as well. At the end of reaction, the reaction was quenched by acidification 10 or 25 fold with 100 mM H3PO4. The quenched samples were filtered using a NANOSEP® MF centrifugal device (30K Molecular Weight Cutoff (MWCO), Pall Life Sciences, Ann Arbor, Mich., P/N OD030C35) by centrifugation for 6 min at 12,000 rpm. The filtrates were assayed by HPLC Karst assay in duplicates to determine the amount of peracetic acid (PAA) generated at those reaction conditions.

[2] = Two-step treatment of hair tresses, tress tensile strength; details: 1500 μg/mL (E/H 6), deposition 5 min, 0.5 M H2O2, 1 M TA, 2 hr/cycle
Protocol: Medium brown hair was used in these examples. Stock hair swatches were custom made by International Hair Importers (Glendale, N.Y.). Each swatch had 1500 mg of 50% reversed hair, soft glued in the middle with glue thickness of 1 mm and width of 2 cm.
Test-hair-sample consisted of a hair bundle of approximately 50 mg hair of 4 cm length, held together by a 1 mm thick, 2 mm wide and 5 mm long glue strip. A sheet of BYTAC® (TYPE VF-81, Saint-Gobain Performance Plastics, Wayne, N.J.) was attached to a polystyrene cover-plate, providing a TEFLON®-coated test-surface for mounting and treatment of hair. A strip of double-sided scotch tape was applied on the BYTAC® surface, closer to the top edge of the test plate. The glued side of the test-hair-sample was pressed down on the exposed side of the tape, making sure that the unglued hair strands are completely clear of the tape. The glued parts of the tress and exposed double-sided tape surface were covered with a strip of clear single-sided tape. Although the method is described for a single test-hair-tress, 4 tresses were used for each test condition and were placed side-by-side during the entire treatment.
The test tress was wetted by tap water and the excess water was absorbed with a paper towel. The calculated volume of the enzyme formulation was applied and was worked in gently and evenly into hair strands with gloved fingers for ˜30 seconds and let the formulation soak in for the specified deposition time. The tress was then rinsed with tap water agitated through a peristaltic pump for 20 seconds, to completely remove the surfactant.
Excess water was removed from the wetted tress from the previous step by absorption on a paper towel. The requisite volumes of the substrates (H2O2 and triacetin (TA)) were applied onto the test-tress. The mixture was rubbed into the hair strand firmly and evenly, with gloved finger for ˜1 min. The tress was left semi-covered for the specified treatment time.
Test-hair was washed with a diluted surfactant solution by rubbing the surfactant into hair with enough vigor to foam, for one minute to remove all traced of oils and residues arising during tress preparation or from previous cycles. Hair was rinsed thoroughly with tap water, agitated through a peristaltic pump for 35 seconds, while gently opening tresses with gloved fingers to ascertain that all adherents (surfactant or moisturizer) are dislodged. Excess moisture was absorbed by pressing down the paper towel over the tress. This would mark the end of one cycle. Treatment cycles were repeated starting from the enzyme-deposition step until the desired number of cycles was reached.
Two samples from each experiment were subjected to Tensile assay as described in Example 23, to determine the extent of hair-weakening.
The following experiments followed the general method of treatment disclosed in Example 25. Solutions were made in 5% TWEEN®-20 surfactant in 50 mM citrate buffer at pH 6. […] H2O2 and triacetin, formulations were made according to Example 24, in 20% LUBRIDERM® lotion in 50 mM citrate buffer at pH 6. After application of the reagents, the treatment was allowed to continue for 24 hr, as in daily application. TWEEN®-20 (5% in 50 mM citrate buffer at pH 6) was used for the final surfactant wash. The treatment was repeated for 15 additional cycles, 16 days in all.
The following experiments followed the general method of treatment disclosed in Example 26, except that after application of the reagents, the treatment was allowed to continue for shorter times per cycle rather than 24 hours per cycle.
Enzyme solutions were made in 0.5% or 5% TWEEN®-20 surfactant in 50 mM citrate buffer at pH 6. […] H2O2 and triacetin, formulations were made according to Example 24, in 20% LUBRIDERM® lotion (Johnson & Johnson, New Brunswick, N.J.) in 50 mM citrate buffer at pH 6. After application of 400 μL each of the reagents, the treatment was allowed to continue for 20-40 min. […]

[3] = Retention of perhydrolase on hair detected by hydrolase activity; format: binding
Protocol: For hair binding experiments brown hair tresses (International Hair Importers and Products, Glensdale N.Y.) were used. The hair was washed with 2% SLES, rinsed extensively with deionized water and air dried.
Around 20 mg of 1 cm brown hair fragments was added in a 1.8-mL microfuge tube. Hydrolase assay buffer (1.2 mL) as added to the hair followed by the addition of the perhydrolase enzymes to the solution. The enzymes were allowed to bind the hair for 30 min with gentle agitation (24 rpm) on an Adams Nutator (model 1105, Becton Dickinson, Franklin Lakes, N.J.). No enzyme controls, with hair and without hair, were included in the binding experiment to account for non-enzymatic hydrolysis of the pNPA hydrolase reagent. After the binding step, a 1.0-mL aliquot of the binding buffer was transferred to a new tube to quantitate the amount of unbound enzyme. Additional binding buffer was removed and the hair fragments were washed 4 times with 1 mL of 1% TWEEN®-20 in hydrolase buffer, followed by 2 washes with 1 mL each in hydrolase buffer. The hair fragments were then resuspended in 1 mL of hydrolase assay and the hydrolase activity that remained bound to the hair was measured. The C277S (“PAH”) variant of Thermotoga maritima perhydrolase (SEQ ID NO: 293) was used as a control for an un-targeted perhydrolase.

B1: SEQ ID NO: 323: S54V variant of the aryl esterase from Mycobacterium smegmatis fused to hair binding domain HC263 via a flexible linker (protein)
chain: MAKRILCFGDSLTWGWVPVEDGAPTERFAPDVRWTGVLAQQLGADFEVIEEGLVARTTNIDDPTDPRLNGASYLPSCLATHLPLDLVIIMLGTNDTKAYFRRTPLDIALGMSVLVTQVLTSAGGVGTTYPAPKVLVVSPPPLAPMPHPWFQLIFEGGEQKTTELARVYSALASFMKVPFFDAGSVISTDGVDGIHFTEANNRDLGVALAEQVRSLLGPGSGGAGSPGSAGGPGSPSAQSQLPDKHSGLHERAPQRYGPEPEPEPEPIPEPPKEAPVVIEKPKPKPKPKPKPPAHDHKNQKETHQRHAAGSGGGGSPHHHHHH
In the case of B1, the PAA ([1]; 10 μg/mL enzyme, 250 mM PGDA, 100 mM H2O2, pH 5, 100 mM citrate buffer, 30 min) is reported as 4158 ppm, the PAA ([1]; 10 μg/mL enzyme, 250 mM PGDA, 100 mM H2O2, pH 5.6, 100 mM citrate buffer, 30 min) is reported as 4482 ppm and the PAA ([1]; 10 μg/mL enzyme, 250 mM PGDA, 100 mM H2O2, pH 6, 100 mM citrate buffer, 30 min) is reported as 4647 ppm. The PAA ([1]; 10 μg/mL enzyme, 250 mM PGDA, 100 mM H2O2, pH 6.6, 100 mM phosphate buffer, 30 min) was 4608 ppm, the PAA ([1]; 10 μg/mL enzyme, 250 mM PGDA, 100 mM H2O2, pH 7.2, 100 mM phosphate buffer, 30 min) was 4450 ppm and the PAA ([1]; 10 μg/mL enzyme, 250 mM triacetin, 100 mM H2O2, 20% LUBRIDERM® in pH 7.2, 100 mM phosphate buffer, 60 min) was 3433 ppm. The PAA ([1]; 20 μg/mL enzyme, 250 mM PGDA, 100 mM H2O2, pH 5, 100 mM citrate buffer, 30 min) was 4140 ppm, the PAA ([1]; 20 μg/mL enzyme, 250 mM PGDA, 100 mM H2O2, pH 5.6, 100 mM citrate buffer, 30 min) was 4403 ppm and the PAA ([1]; 20 μg/mL enzyme, 250 mM PGDA, 100 mM H2O2, pH 6, 100 mM citrate buffer, 30 min) was 4609 ppm. The PAA ([1]; 20 μg/mL enzyme, 250 mM PGDA, 100 mM H2O2, pH 6.6, 100 mM phosphate buffer, 30 min) was 4526 ppm, the PAA ([1]; 20 μg/mL enzyme, 250 mM PGDA, 100 mM H2O2, pH 7.2, 100 mM phosphate buffer, 30 min) was 4726 ppm and the PAA ([1]; 20 μg/mL enzyme, 250 mM triacetin, 100 mM H2O2, pH 5, 100 mM citrate buffer, 30 min) was 3680 ppm. It also gave a PAA ([1]; 20 μg/mL enzyme, 250 mM triacetin, 100 mM H2O2, pH 5.6, 100 mM citrate buffer, 30 min) of 4429 ppm, a PAA ([1]; 20 μg/mL enzyme, 250 mM triacetin, 100 mM H2O2, pH 6, 100 mM citrate buffer, 30 min) of 4616 ppm and a PAA ([1]; 20 μg/mL enzyme, 250 mM triacetin, 100 mM H2O2, pH 6.6, 100 mM phosphate buffer, 30 min) of 4488 ppm. It also gave a PAA ([1]; 20 μg/mL enzyme, 250 mM triacetin, 100 mM H2O2, pH 7.2, 100 mM phosphate buffer, 30 min) of 4812 ppm and a TS [2] of 0.28 N/mgH.

B2: C277S: non-targeted C277S variant of the Thermotoga maritima perhydrolase, un-targeted control (protein, listed as Thermotoga maritima)
chain: MAFFDLPLEELKKYRPERYEEKDFDEFWEETLAESEKFPLDPVFERMESHLKTVEAYDVTFSGYRGQRIKGWLLVPKLEEEKLPCVVQYIGYNGGRGFPHDWLFWPSMGYICFVMDTRGQGSGWLKGDTPDYPEGPVDPQYPGFMTRGILDPRTYYYRRVFTDAVRAVEAAASFPQVDQERIVIAGGSQGGGIALAVSALSKKAKALLCDVPFLCHFRRAVQLVDTHPYAEITNFLKTHRDKEEIVFRTLSYFDGVNFAARAKIPALFSVGLMDNISPPSTVFAAYNYYAGPKEIRIYPYNNHEGGGSFQAVEQVKFLKKLFEKG
With B2 the “Activity in the first TWEEN®-20 wash” value ([3]; hydrolase activity, 1% TWEEN®-20) was 5%, the “Activity retained on hair after 4 TWEEN® 20 washes” value ([3]; hydrolase activity, 4 washes 1% TWEEN®-20 and 2 buffer washes) was 1% and the Activity unbound ([3]; hydrolase activity, ~20 mg hair, binding 30 min) was 103%. The “100% activity (hydrolase activity added to the tube)” value ([3]; tube containing ~20 mg of hair, not subjected to washes) was 148 µmol/min and the TS [2] was 2.84 N/mgH.
